# Results published in patent US20110064740A1 (GlaxoSmithKline, published 2011).
# Columns and labels:
# [1] = target: T1, human Aβ peptide (1-40) biotinylated at the C terminus (human, UniProt P05067 672-711, biotinylated at the C-terminus); assay: Aβ binding ELISA, human Aβ (1-40) biotinylated at the C terminus
# T1 construct: domain: β-amyloid peptide (1-40); Numbers 1-40 count on the β-amyloid peptide, not on APP; also called beta-amyloid 1-40 peptide (biotinylated at the C-terminus); streptavidin-captured beta-amyloid (1-40)
# [2] = target: T1, human Aβ peptide (1-40) biotinylated at …; assay: as above; remark: listed apart in the source
# [3] = target: T1, human Aβ peptide (1-40) biotinylated at …; assay: as above; remark: listed apart in the source
# [4] = target: T1, human Aβ peptide (1-40) biotinylated at …; assay: SPR Biacore 3000, Method A(i): C-terminally biotinylated β-amyloid 1-40 on streptavidin chip, antibody as analyte; Run 1
# Description: (§1) (i) Briefly, <20 resonance units of beta-amyloid 1-40 peptide (biotinylated at the C-terminus) were captured on a streptavidin biosensor chip (as used for Table 10A). The antibodies were diluted down in HBS-EP buffer and passed over the streptavidin/beta-amyloid surface at concentrations ranging from 0.001 nM-8 nM (for Table 10A). Two separate runs were carried out; each run was carried out on a new streptavidin/beta-amyloid surface. Runs 1 and 2 were essentially the same though there were some differences in the parameters used; Run 1 was carried out using a chip surface on which 16 RU's of beta-amyloid were captured, and antibody concentrations of 0.001 nM-8 nM were used, an association time of 4 minutes and a dissociation time of 20 minutes were used at a flow rate of 50 μl per minute. For Run 2, less than 10 RU's of beta-amyloid were captured and antibody concentrations of 0.003125 nM-8 nM were used. The flow rate and association times were the same as Run 1, however the dissociation time was reduced to 15 minutes. (ii) Beta amyloid (1-40) and (1-42) were amine-coupled on different surfaces of a CM5 biosensor chip to a level of <20 resonance units (as used for Table 10B). The antibodies were diluted down in HBS-EP buffer and passed over the biosensor/beta-amyloid surface at concentrations ranging from 1 nM-64 nM (as used for Table 10B).
# (§2) In both methods, regeneration was via a pulse of 100 mM H₃PO₄, and for Table 10A data also followed by a pulse of 50 mM NaOH. […] All runs were double referenced against buffer blank injections. Analysis was carried out using the Biacore™ analysis software BIAevaluation version 4.1.
# [5] = target: T1, human Aβ peptide (1-40) biotinylated at …; assay: SPR Biacore 3000, Method A(i): C-terminally biotinylated β-amyloid 1-40 on streptavidin chip, antibody as analyte; Run 2
# Description: as §1, §2
# [6] = target: T2, human Aβ peptide (length not stated) (human, UniProt P05067 672-711); assay: competition ELISA, β-amyloid in solution pre-incubated with the antibody; competitor: immobilised mouse 2E7; Experiment 1
# T2 construct: also called β-amyloid in solution
# Description: (§3) 2) β-amyloid in solution; a constant concentration of β-amyloid was pre-incubated with a dilution series of humanised 2E7 antibody variants—the mixture including complexed and free amyloid was added for a short time to wells containing immobilised mouse 2E7 MAb. The amount of free β-amyloid that was still available for binding the immobilised parental 2E7 MAb was then detected.
# [7] = target: T2, human Aβ peptide (length not stated); assay: competition ELISA, β-amyloid in solution pre-incubated with the antibody; competitor: immobilised mouse 2E7; Experiment 2
# Description: as §3
# [8] = target: T1, human Aβ peptide (1-40) biotinylated at …; assay: competition ELISA, biotinylated human Aβ (1-40) on streptavidin plate; competitor: mouse 2E7 at constant concentration; Experiment 1
# Description: (§4) Two types of competition ELISA were established in order to compare the Aβ binding activity of the three humanised variants compared to the 2E7 chimeric antibody. 1) Immobilised β-amyloid; biotinylated human Aβ peptide (1-40) was immobilized through Streptavidin on ELISA plates Mouse 2E7 antibody was added at a constant concentration along with a dilution series of 2E7-derived humanised variant antibodies. Bound mouse 2E7 MAb was then detected with anti-mouse IgG conjugate.
# [9] = target: T1, human Aβ peptide (1-40) biotinylated at …; assay: competition ELISA, biotinylated human Aβ (1-40) on streptavidin plate; competitor: mouse 2E7 at constant concentration; Experiment 2
# Description: as §4
# [10] = target: T1, human Aβ peptide (1-40) biotinylated at …; assay: SPR Biacore 3000, Method A(i): C-terminally biotinylated β-amyloid 1-40 on streptavidin chip, antibody as analyte; Average(SD) of two runs
# Description: as §1, §2
# [11] = target: T1, human Aβ peptide (1-40) biotinylated at …; assay: Aβ binding ELISA with culture supernatant, Aβ peptide (1-40)
# [12] = target: T3, human beta-amyloid peptide (1-40) (human, UniProt P05067 672-711); assay: SPR Biacore 3000, Method B: antibody captured, β-amyloid as analyte
# T3 construct: domain: beta-amyloid peptide (1-40); Unlabelled peptide: amine-coupled to a CM5 chip (Method A(ii)) or in solution as analyte (Method B); also called beta-amyloid (1-40)
# Description: (§5) In the second instance the assay was reversed, in that antibodies were first captured to a level of 1000-2500 resonance units on an anti-mouse IgG polyclonal antibody surface (for recombinant mouse 2E7 MAb) or a protein A surface (for humanized H2L1) of a CM5 biosensor chip. Freshly prepared beta-amyloid (1-40) or (1-42) was diluted down in HBS-EP buffer and passed over the captured-antibody surface at concentrations ranging from 4-500 nM (Table 10C and 10D).
# as §2
# [13] = target: T4, human beta-amyloid peptide (1-42) (human, UniProt P05067 672-713); assay: as above
# T4 construct: domain: beta-amyloid peptide (1-42); Unlabelled peptide: amine-coupled to a CM5 chip (Method A(ii)) or in solution as analyte (Method B); also called beta-amyloid (1-42)
# Description: as §5, §2
# T2 sequence (P05067 672-711): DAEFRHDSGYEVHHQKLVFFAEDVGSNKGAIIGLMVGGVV
# T3 sequence (P05067 672-711 limits assumed): as the sequence (P05067 672-711) above
# T1 sequence (P05067 672-711 limits assumed): as the sequence (P05067 672-711) above
# T4 sequence (P05067 672-713 limits assumed): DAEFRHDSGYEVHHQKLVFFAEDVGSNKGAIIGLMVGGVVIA
Binder,EC50 [1],EC50 [2],EC50 [3],Kd [4],Kd [5],IC50 [6],IC50 [8],IC50 [9],Kd [10],EC50 [11],also measured
"Humanised 2E7 variant H1L1 (antibody, human IgG1, kappa, V domains shown, Human IgG1 with L235A and G237A, human kappa; also called L1+H1) VH: EVQLVESGGGLVQPGGSLRLSCAASGFTFSDNGMAWVRQAPGKGLEWVSFISNLAYSIDYADTVTGRFTISRDNAKNSLYLQMNSLRAEDTAVYYCVSGTWFAYWGQGTLVTVSS VL: DIVMTQSPLSLPVTPGEPASISCRVSQSLLHSNGYTYLHWYLQKPGQSPQLLIYKVSNRFSGVPDRFSGSGSGTDFTLKISRVEAEDVGVYYCSQTRHVPYTFGGGTKVEIKR",0.035 µg/mL,0.051 µg/mL,0.047 µg/mL,0.095 nM,0.0922 nM,0.114 µg/mL,1.62 µg/mL,1.76 µg/mL,0.0936 nM,,IC50 [7]: 0.14 µg/mL
"H2L1 Fab cys, H2 heavy chain truncated at the second cysteine in the hinge region at residue 226 (Fab, V domains shown, Recombinant Fab from CHOK1 culture supernatant; also called (b) H2L1 Fab cys) VH: EVQLVESGGGLVQPGGSLRLSCAVSGFTFSDNGMAWVRQAPGKGLEWVSFISNLAYSIDYADTVTGRFTISRDNAKNSLYLQMNSLRAEDTAVYYCVSGTWFAYWGQGTLVTVSS VL: DIVMTQSPLSLPVTPGEPASISCRVSQSLLHSNGYTYLHWYLQKPGQSPQLLIYKVSNRFSGVPDRFSGSGSGTDFTLKISRVEAEDVGVYYCSQTRHVPYTFGGGTKVEIKR",,,,,,,,,,0.226 µg/mL,
"H2L1 Fab His, H2 heavy chain truncated at position 224 with a C-terminal 6x histidine tag including histidine at position 224 (Fab, V domains shown, Recombinant Fab from CHOK1 culture supernatant) VH: EVQLVESGGGLVQPGGSLRLSCAVSGFTFSDNGMAWVRQAPGKGLEWVSFISNLAYSIDYADTVTGRFTISRDNAKNSLYLQMNSLRAEDTAVYYCVSGTWFAYWGQGTLVTVSS VL: DIVMTQSPLSLPVTPGEPASISCRVSQSLLHSNGYTYLHWYLQKPGQSPQLLIYKVSNRFSGVPDRFSGSGSGTDFTLKISRVEAEDVGVYYCSQTRHVPYTFGGGTKVEIKR",,,,,,,,,,0.227 µg/mL,
"2F11, an identical sequence clone to mouse 2E7 MAb (antibody, V domains shown, Mouse antibody) VH: EVKLVESGGGLVQPGGSLKLSCAVSGFTFSDNGMAWVRQAPRKGPEWIAFISNLAYSIDYADTVTGRFTISRDNAKNTLYLEMSSLRSEDTAMYYCVSGTWFAYWGQGTLVTVSA VL: DVVLTQTPLSLPVSLGDQASISCRVSQSLLHSNGYTYLHWYLQKPGQSPKLLIYKVSNRFSGVPDRFSGSGSGTDFTLKISRVEAEDLGVYFCSQTRHVPYTFGGGTKLEIK",,,,,,,,,,,Kd [12]: 1.31 nM; koff [12]: 0.000392 s⁻¹; kon [12]: 299000 M⁻¹ s⁻¹; Kd [13]: 1.14 nM; koff [13]: 0.000274 s⁻¹; kon [13]: 239000 M⁻¹ s⁻¹

# More lines, main results first:
EC50 [1],EC50 [2],EC50 [3],Kd [4],Kd [5],IC50 [6],IC50 [8],IC50 [9],Kd [10],EC50 [11],Binder,also measured
,,,,,,,,,0.239 µg/mL,"H2L1 Fab, H2 heavy chain truncated at residue 224 of the hinge region (Fab, V domains shown, Recombinant Fab from CHOK1 culture supernatant; also called (a) H2L1 Fab) VH: EVQLVESGGGLVQPGGSLRLSCAVSGFTFSDNGMAWVRQAPGKGLEWVSFISNLAYSIDYADTVTGRFTISRDNAKNSLYLQMNSLRAEDTAVYYCVSGTWFAYWGQGTLVTVSS VL: DIVMTQSPLSLPVTPGEPASISCRVSQSLLHSNGYTYLHWYLQKPGQSPQLLIYKVSNRFSGVPDRFSGSGSGTDFTLKISRVEAEDVGVYYCSQTRHVPYTFGGGTKVEIKR",
0.044 µg/mL,0.055 µg/mL,0.04 µg/mL,0.076 nM,0.0572 nM,0.069 µg/mL,1.53 µg/mL,1.39 µg/mL,0.0666 nM,,"Humanised 2E7 variant H3L1 (antibody, human IgG1, kappa, V domains shown, Human IgG1 with L235A and G237A, human kappa; also called L1+H3) VH: EVQLVESGGGLVQPGGSLRLSCAASGFTFSDNGMAWVRQAPGKGLEWISFISNLAYSIDYADTVTGRFTISRDNAKNSLYLQMNSLRAEDTAVYYCVSGTWFAYWGQGTLVTVSS VL: DIVMTQSPLSLPVTPGEPASISCRVSQSLLHSNGYTYLHWYLQKPGQSPQLLIYKVSNRFSGVPDRFSGSGSGTDFTLKISRVEAEDVGVYYCSQTRHVPYTFGGGTKVEIKR",IC50 [7]: 0.115 µg/mL
0.033 µg/mL,0.043 µg/mL,0.044 µg/mL,0.0481 nM,0.0435 nM,0.052 µg/mL,1.31 µg/mL,1.29 µg/mL,0.0458 nM,,"Chimeric 2E7 antibody (2E7c) (antibody, human IgG1, V domains shown, Parent murine V regions on human IgG1 (L235A, G237A) and human C kappa; also called 2E7c Chimera; not shown: human IgG1 heavy chain constant region, Fc mutated (L235A, G237A); human C kappa constant region) VH: EVKLVESGGGLVQPGGSLKLSCAVSGFTFSDNGMAWVRQAPRKGPEWIAFISNLAYSIDYADTVTGRFTISRDNAKNTLYLEMSSLRSEDTAMYYCVSGTWFAYWGQGTLVTVSA VL: DVVLTQTPLSLPVSLGDQASISCRVSQSLLHSNGYTYLHWYLQKPGQSPKLLIYKVSNRFSGVPDRFSGSGSGTDFTLKISRVEAEDLGVYFCSQTRHVPYTFGGGTKLEIK",
